From patent US12240882B2, “Fusion proteins comprising an engineered knottin peptide and uses thereof” (The Board of Trustees of the Leland Stanford Junior …, priority 2010, dated 2025) come the findings set out here.

“Also recorded” adds a separate entry of the source. Ends that are not written are not given here.

The subject of one data set is U87MG cells. The data set can be described thus: Binding of AgRP mutant 7A to U87MG cells. To be noted: read-out: KD against U87MG cells. The text has this:
(§1) The αvβ3 integrin receptor is over-expressed on many solid tumor cells making it an important cancer target. The Agouti related protein (AgRP), a cystine-knot peptide, contains four disulfide bonds and four solvent-exposed loops. It was engineered to target αvβ3 integrin receptors with pM binding affinity.

The test system of a further data set is K562-αvβ3 cells. The data set can be described thus: Binding of AgRP mutant 7A to K562-αvβ3 cells. Particulars: read-out: KD against K562-αvβ3 cells.
Description: as §1

Another data set addresses T1, Met receptor (Homo sapiens, UniProt P08581).
T1 construct: PC3 cells express medium levels of the αvβ3 integrin and Met; endogenous in cells; host or cells: PC3 prostate cancer cells
The data set is described as follows: Met receptor phosphorylation assay in PC3 cells. In kind it is cell-based. To be noted: 0.3 nM HGF, Western blot. On the procedure: A Met receptor phosphorylation assay was performed in PC3 (prostate cancer cells). Met receptor phosphorylation was assayed by Western blot after stimulation with 0.3 nM HGF. […] (Note: PC3 cells express medium levels of the αvβ3 integrin and Met, and low levels of the α5β1 integrin).

For a further data set, the system named is HUVECs. The data set can be described thus: HUVEC proliferation assay stimulated with HGF. To be noted: 0.5 nM HGF.
For another data set, the target named is αvβ3 integrin (Homo sapiens, UniProt P05106+P06756). The data set can be described thus: cRGD competition of EETI 2.5D-Axl binding to K562-αvβ3 cells.
The subject of data set [1] is human umbilical vein endothelial cells (HUVECs). The data set can be described thus: HUVEC cell binding assay of knottin-NK1 fusions. Particulars: read-out: binding affinity (KD) towards HUVECs. The text has this:
HUVECs express medium levels of the αvβ3, αvβ5 integrins, the Met receptor, and a high level of the […] integrin.

Another data set has as its target human Met-Fc (Homo sapiens, UniProt P08581). The data set can be described thus: Dual receptor direct binding assay on K562-αvβ3 cells. To be noted: Met-Fc 220 nM, proteins 2 or 20 nM. On the procedure: In this experiment, a mixture of soluble Alexa-488 labeled human Met-Fc (220 nM) and the mono-specific and the multi-specific proteins (2 or 20 nM) were added to K562-αvβ3 cells. Binding was detected by flow cytometry.

The nature of data set [2]: Serum stability, Western Blot. Particulars: 40% human serum, 37° C., 7 days. Type of data set: in vitro ADME. The protocol: Serum stability of AgRp7A-M2.2(D127A) and EETI2.5F-M2.2(D127A) was shown when the proteins were incubated with 40% human serum at 37° C. for over several days. Samples were analyzed by Western Blot and detected with an antibody against the FLAG epitope tag.

Data set [3] has as its target T2, Gas6 (Homo sapiens, UniProt Q14393).
T2 sequence (Q14393 31-678): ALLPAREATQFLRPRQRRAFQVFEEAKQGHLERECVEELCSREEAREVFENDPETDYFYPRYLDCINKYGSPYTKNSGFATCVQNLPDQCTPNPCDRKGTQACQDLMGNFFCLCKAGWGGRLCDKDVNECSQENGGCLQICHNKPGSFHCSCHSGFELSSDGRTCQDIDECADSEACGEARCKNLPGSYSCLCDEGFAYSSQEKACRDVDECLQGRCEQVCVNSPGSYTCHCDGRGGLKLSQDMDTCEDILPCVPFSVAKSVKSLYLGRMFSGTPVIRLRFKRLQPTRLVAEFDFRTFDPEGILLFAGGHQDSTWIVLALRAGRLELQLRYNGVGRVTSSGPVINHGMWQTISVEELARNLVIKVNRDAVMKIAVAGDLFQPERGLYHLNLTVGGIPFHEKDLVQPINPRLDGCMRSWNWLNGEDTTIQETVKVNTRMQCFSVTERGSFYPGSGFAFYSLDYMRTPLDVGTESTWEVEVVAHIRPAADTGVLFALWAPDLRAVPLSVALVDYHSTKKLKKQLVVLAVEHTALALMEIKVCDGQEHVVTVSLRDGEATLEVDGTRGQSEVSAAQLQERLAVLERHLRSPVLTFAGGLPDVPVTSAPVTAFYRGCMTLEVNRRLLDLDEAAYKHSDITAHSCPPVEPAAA
The data set can be described thus: Yeast surface display equilibrium binding to soluble Gas6. Set-up: purchased R&D Systems.

Data set [4] can be described thus: Melting temperature of engineered Axl Ig1 clone. Particulars: versus wild-type Axl Ig1.
In data set [5] the target is T2, Gas6. The data set is described as follows: Equilibrium binding of engineered Axl Ig1 clones to Gas6. To be noted: binding to Gas6, versus wild-type Axl Ig1.

On to “AgRP mutant, SEQ ID NO: 36 GCVRLHESCLGQQVPCCDPAATCYCSGRGDNDLVCYCR (ends and bridges not checked; cysteine pairing not given here) [AgRp7A]”, for which the Kd in the data set on U87MG cells was found to be 0.78 nM; in the data set with K562-αvβ3 cells, 0.89 nM. The “inhibition of Met phosphorylation” value with Met receptor was “did not show inhibition”. In addition, the “inhibitory effect on HUVEC proliferation” value in the data set on HUVECs is “little inhibitory effect”.
Turning to “EETI RGD mutant binding αvβ3, αvβ5, α5β1, SEQ ID NO: 33 GCPRPRGDNPPLTCKQDSDCLAGCVCGPNGFCG (ends and bridges not checked; cysteine pairing not given here) [EETI2.5F]”, the “inhibitory effect on HUVEC proliferation” value in the data set on HUVECs is reported as “good inhibition”. Further, in the data set on HUVECs (1 μM, cells alone=90% inhibition), the “inhibition of HUVEC proliferation” value came to 70%.
For cRGD [reference compound], the “binding of EETI 2.5D-Axl to K562-αvβ3 cells with molar excess of cRGD” value at αvβ3 integrin is on record as “inhibits the binding”.

B1: AgRp7A-M2.2(D127A): AgRP 7A knottin fused to NK1 fragment of HGF (M2.2 (D127A)), SEQ ID NO: 86 (protein)
chain: DYKDDDDKPRGCVRLHESCLGQQVPCCDPAATCYCSGRGDNDLVCYCRYAEGQRKRRNTIHEFKKSAKTTLIKIDPALKIKTEKVNTADQCANRCTRNKGLPFTCKAFVFDKARKRCLWFPFNSMSSGVKKEFGHEFDLYENKDYIRACIIGNGRSYRGTVSITKSGIKCQPWSSMIPHEHSFLPSSYRGEDLRENYCRNPRGEEGGPWCFTSDPEVRYEVCDIPQCSEVETRHHHHHH
B1: in data set [1], the Kd stood at 9.4 ± 1 nM. Besides, the “simultaneous binding to soluble Met-Fc and αvβ3 integrin on cells” value (from here on “simultaneous binding”) with human Met-Fc was “able to bind to soluble Met-Fc”. For the same molecule, the “amount of intact fusion protein in serum” value in data set [2] was “No significant decrease”. For the same molecule, the “inhibitory effect on HUVEC proliferation” value in the data set on HUVECs was “higher inhibitory effects”.

B2: AgRp7A-M2.2: AgRP 7A knottin fused to NK1 fragment of HGF (M2.2), SEQ ID NO: 85 (protein)
chain: DYKDDDDKPRGCVRLHESCLGQQVPCCDPAATCYCSGRGDNDLVCYCRYAEGQRKRRNTIHEFKKSAKTTLIKIDPALKIKTEKVNTADQCANRCTRNKGLPFTCKAFVFDKARKRCLWFPFNSMSSGVKKEFGHEFDLYENKDYIRDCIIGNGRSYRGTVSITKSGIKCQPWSSMIPHEHSFLPSSYRGEDLRENYCRNPRGEEGGPWCFTSDPEVRYEVCDIPQCSEVETRHHHHHH
Regarding B2, in the data set with human Met-Fc, the “simultaneous binding” value is “able to bind to soluble Met-Fc”.

B3: AgRp7A-Aras4: AgRP 7A knottin fused to NK1 fragment of HGF (Aras4), SEQ ID NO: 66 (protein)
chain: DYKDDDDKPRGCVRLHESCLGQQVPCCDPAATCYCSGRGDNDLVCYCRYAEGQGKRRNTIHEFKKSAKTTLIKIDPALRIKTEKANTADQCANRCTRSKGLPFTCKAFVFDKARKRCLWFPFNSMSSGVKKEFGHEFDLYENKAYIRDCIIGRGRNYRGTVSITKSGIKCQPWSAMIPHEHSFLPSSYRGEDLRENYCRNPRGEEGGPWCYTSDPEVRYEVCDIPQCSEVETRHHHHHH
As for B3, the “inhibition of Met phosphorylation” value with Met receptor is reported as “Dose dependent decreases; also recorded: slightly higher inhibitory effects”.

B4: Wt EETI-Axl: Wild-type EETI-II fused to the Axl Ig1 N-terminus (protein)
chain: GCPRILMRCKQDSDCLAGCVCGPNGFCGSRGTQAEESPFVGNPGNITGARGLTGTLRCQLQVQGEPPEVHWLRDGQILELADSTQTQVPLGEDEQDDWIVVSQLRITSLQLSDTGQYQCLVFLGHQTFVSQPGYVGLEGLP
Consider B4, for which the “affinity / binding to Gas6” value in the data set with Gas6 [3] was “same affinity as wild-type Axl”.

B5: EETI2.5F-M2.2(D127A): EETI 2.5F knottin fused to NK1 fragment of HGF (M2.2 (D127A)), SEQ ID NO: 89 (protein)
chain: DYKDDDDKPRGCPRPRGDNPPLTCSQDSDCLAGCVCGPNGFCGYAEGQRKRRNTIHEFKKSAKTTLIKIDPALKIKTEKVNTADQCANRCTRNKGLPFTCKAFVFDKARKRCLWFPFNSMSSGVKKEFGHEFDLYENKDYIRACIIGNGRSYRGTVSITKSGIKCQPWSSMIPHEHSFLPSSYRGEDLRENYCRNPRGEEGGPWCFTSDPEVRYEVCDIPQCSEVETRHHHHHH
Turning to B5, in data set [1], the Kd came out at 4.7 ± 0.6 nM. Moreover, the “simultaneous binding” value with human Met-Fc is “able to bind to soluble Met-Fc”. The “amount of intact fusion protein in serum” value in data set [2] is given as “No significant decrease”. Also, in the data set with HUVECs, the “inhibitory effect on HUVEC proliferation” value was “higher inhibitory effects”.

B6: EETI2.5F-M2.2: EETI 2.5F knottin fused to NK1 fragment of HGF (M2.2), SEQ ID NO: 88 (protein)
chain: DYKDDDDKPRGCPRPRGDNPPLTCSQDSDCLAGCVCGPNGFCGYAEGQRKRRNTIHEFKKSAKTTLIKIDPALKIKTEKVNTADQCANRCTRNKGLPFTCKAFVFDKARKRCLWFPFNSMSSGVKKEFGHEFDLYENKDYIRDCIIGNGRSYRGTVSITKSGIKCQPWSSMIPHEHSFLPSSYRGEDLRENYCRNPRGEEGGPWCFTSDPEVRYEVCDIPQCSEVETRHHHHHH
B6: in the data set with human Met-Fc, the “simultaneous binding” value is “able to bind to soluble Met-Fc”.

B7: Axl S6-1: engineered Axl Ig1, G32S, D87G, V92A, G127R, SEQ ID NO: 62 (protein)
chain: APRGTQAEESPFVSNPGNITGARGLTGTLRCQLQVQGEPPEVHWLRDGQILELADSTQTQVPLGEDEQGDWIVASQLRITSLQLSDTGQYQCLVFLGHQTFVSQPGYVRLEGLP
B7: the “improvement in melting temperature over wild-type” value in data set [4] turned out to be 13 °C. The “fold improvement in equilibrium binding over wild-type” value with Gas6 [5] came out at 20 fold.
